# From patent US20110172391A1 (published 2011)
# What was measured:
# precursor protein MINC = precursor protein MINC (Synechocystis sp. PCC6803); assay: cell-based or functional assay
# N-precursor protein MINH = N-precursor protein MINH (Synechocystis sp. PCC6803); assay: cell-based or functional assay
binder,measurement,setting,value
GVFVHASG [8-aa Ic peptide],fold increase of the N-cleavage rate constant with 10 mM DTT against the Ic peptide alone,precursor protein MINC,~2 fold
same,fold increase of the N-cleavage rate constant with 100 mM DTT against the Ic peptide alone,precursor protein MINC,~10 fold
GVFVHNSADYKDDDDKSGCLAGDTLITLAS [synthetic peptide (ICF)],"rate constant (kobs) of the trans-splicing reaction, pseudo-first order, 10-fold molar excess of ICF",N-precursor protein MINH,6.9e-05 s⁻¹
GVFVHN [6-aa Ic peptide],N-cleavage rate against the longer Ic peptide (with 10 mM or 100 mM DTT),precursor protein MINC,~2 fold slower
